Experimental data taken from the RNAGym collection of RNA variant scans (doi:10.1073/pnas.2313332121).
This sample holds only a part of the variants without activity.

B1: TPR 5TU (parent)
chain: GGAUCUUCUCGAUCUAACAAAAAAGACAAAUCUGCCACAAAGCUUGAGAGCAUCUUCGGAUGCAGAGGCGGCAGCCUUCGGUGGCGCGAUAGCGCCAACGUUCUCAACUAUGACACGCAAAACGCGUGCUCCGUUGAAUGGAGUUUAUCAUG

Variants of: B1
Assay: polymerase ribozyme fitness, log enrichment relative to wild type (log ratio); higher = more active; in vitro selection for triplet polymerase activity
Method in brief: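 Both subunits of a heterodimeric triplet polymerase ribozyme were given their own mutant library, built by PCR and transcribed. Each library was annealed with a biotinylated primer, the partner subunit and triplets, incubated frozen at −7 °C, and its extended constructs gel-excised, captured on streptavidin beads and amplified by RT-PCR, all in one round done in triplicate. Fitness is the logarithm of genotype enrichment relative to wild-type enrichment, with replicates averaged by inverse-variance weighting. That logarithm is base 2, and Illumina-sequenced genotypes needed ≥10 input reads and ≥1 read per output.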

Row | Variant | polymerase ribozyme fitness (log ratio)
1 | G94A A106G C131G | ≤ -4.2
2 | C93U G94U | -1.43
3 | C96G A122G U139G | 0.0535
4 | C93U A115U A120G | -2.4
5 | G94A A97U | -1
6 | G94C U104G | -1.24
7 | C96A U144A | -0.177
8 | G94C A122C A137U | -4.05
9 | C96G C105G G143A | -3.02
10 | C96U A97U U134G A138C | ≤ -4.2
11 | G94A A119U | -2.21
12 | C96G A150U | 0.451
13 | C96U G117U A120U C149A | ≤ -4.2
14 | C93U A113U A119C G140U | -3.82
15 | C93U G94U A107C | ≤ -4.2
16 | C95U C96G U135G U144G A147C | -4.2
17 | A97U U139C G140C U145G | -3.85
18 | A97G C116U G133U | ≤ -4.2
19 | C96G A98U C103G A113C G143A | ≤ -4.2
20 | G94U G143U | -3.64
21 | C96A C116G G136C | -3.22
22 | C96G U102C A121G G141A A150G | -4.15
23 | C95A C96A C116U | -0.649
24 | A98U A137C | -4.19

Row | Variant | polymerase ribozyme fitness (log ratio)
25 | G94C A142C | -1.37
26 | A97U U151G | ≤ -4.2
27 | G94C C129G | -3.39
28 | C93U C131A | -2.97
29 | C93U A150G | -1.93
30 | C95A C99A C123G | -1.33
31 | C96G U144C | -0.123
32 | C93U C123G A138C | ≤ -4.2
33 | C96G C131A | -2.35
34 | C95U A142C | -1.54
35 | C95U A142G | -1.66
36 | C96G A98U U144G | -0.0548
37 | C95U U101G C105U C125U A142U | ≤ -4.2
38 | C95U C96A C99U C108U | -4.11
39 | C96A G124A | -0.328
40 | C96A G124U | -0.674
41 | G94A C105U C116U C125G | -0.0334
42 | C93U U109C | ≤ -4.2
43 | C96U A97G G124A C149A | -4.08
44 | C96G G100U | -3.95
45 | C96U U148G | -3.13
46 | C96U U148A | -3.33
47 | C96A G126C | -0.953
48 | C96A G128U | -2.45

Row | Variant | polymerase ribozyme fitness (log ratio)
49 | C93U G133C | -2.76
50 | A98U A142U | -2.98
51 | G94A C123G U146G | -1.05
52 | C96G U134G | -1.64
53 | C96A C105U A122U | 0.463
54 | A97G G143A | -1.44
55 | C95A U101C | 0.62
56 | C95U A98G | -1.9
57 | C95U A98C | -1
58 | G94U C96U | -0.719
59 | C95U C131G | -3.24
60 | C96U A97C | 0.0607
61 | C95G A97C | -0.47
62 | A97G A107G | -4.13
63 | C96U G133A | -3.92
64 | C96U A137U | -3.84
65 | C96G C103U | -0.445
66 | C96U A138U | ≤ -4.2
67 | C93U U102G G117U U135A | ≤ -4.2
68 | G94U U104C G117U U134A | -2.96
69 | G94A U101G | -0.0834
70 | C96U G143A | -0.236
71 | C96U G143C | -3.12
72 | C93U G140U | -3.59

Row | Variant | polymerase ribozyme fitness (log ratio)
73 | C95U A147U | 0.673
74 | C93U C149G | -4.08
75 | C93U C149U | -1.57
76 | C96U U101C A142C | -1.82
77 | C96G G152U | -2.77
78 | G94A G141A | 0.172
79 | G94A G141C | -2.23
80 | G94A G141U | 0.898
81 | C95U A150G | -2.25
82 | G94A G143A | -1.01
83 | G94A G143U | -3.57
84 | A97U C116U | -0.695
85 | A97U G117U | -1.25
86 | G94A G152C | -3.08
87 | A98G U101C G141U | 0.851
88 | G94C G117U | 0.0157
89 | G94C U101A G152A | -2.72
90 | A97G C123U | 0.215
91 | G94C A113G | -2.8
92 | G94A C105G C116A G141C | ≤ -4.2
93 | G94A C116G C123G | 0.258
94 | C96U C103U | -1.25
95 | C93U C95U U102A A106G | -2.87
96 | C93U C99G G136A | -0.753

Row | Variant | polymerase ribozyme fitness (log ratio)
97 | C93U A137C | -4.07
98 | G94U A142U | -1.73
99 | C96U C131G | -2.66
100 | C96U C131U | 0.576
101 | G94C U101C | -0.185
102 | C93U C99U | -2.8
103 | C93U C99A | -3.72
104 | C93U C99G | -1.97
105 | C96A A98U | -0.335
106 | C95U C125U A142C | -3.48
107 | G94A C114U | -1.93
108 | A98U C129U | 0.463
109 | C95U C114U | -1.72
110 | C96G C108A C123G | -3.69
111 | G94U C129G A147U | ≤ -4.2
112 | C96U G100U | -3.13
113 | C96U A119U G152C | -3.13
114 | C96G A98G G124A | -1.82
115 | C96G C125G U130G C132A | ≤ -4.2
116 | G94A U146G | -1.25
117 | C96G G141C | -0.919
118 | G94A G124A A150U | 0.987
119 | C96A C125U G143A | -3.57
120 | C96G G143C | -2.86

Row | Variant | polymerase ribozyme fitness (log ratio)
121 | G94C U134G U135C | ≤ -4.2
122 | C96U A107C | -3.14
123 | C96U A107U | -3.35
124 | C93U C105U | -2.55
125 | C96A U127A | -3.79
126 | C95U U102G | -1.19
127 | C95U U102C | -1.06
128 | G94U A147U | 0.0631
129 | C96G A97U | -1.83
130 | C96G A97G | -2.61
131 | A97U G140U | -3.87
132 | C96U A110U | -3.6
133 | C93U C116U C123A | -1.16
134 | G94A G141A A150U | ≤ -4.2
135 | C96U A115G G136U A142G | -3.69
136 | G94A U104C C149U | -1.16
137 | A97G C123G C131G | -2.72
138 | C95U C123A C125U | -0.165
139 | C96U G143C U146C | -1.75
140 | G94A C116G | 0.466
141 | G94C G126A C132A | -2.93
142 | C93U G141A U146G | -3.48
143 | C96U C105A C116G | -1.79
144 | C96U A142C | -1.15

Row | Variant | polymerase ribozyme fitness (log ratio)
145 | C96U A142G | -1.18
146 | G94C A97G A121U A122U | -0.691
147 | C95A G141C | 0.744
148 | C96U A115U | -2.64
149 | A98U U148A | -3.03
150 | G94C A97G C116A | -0.587
151 | C96U A121G | 0.324
152 | C93U C96A | -1.65
153 | C95A G140A | -2.71
154 | C93U U135A | -2.01
155 | C93U U135C | -2.76
156 | A97U G141C U146G | -2.08
157 | C96A U130C | 0.457
158 | G94U C114G C116U | ≤ -4.2
159 | C96A G143C | -2.38
160 | G94A A110G | -2.35
161 | C95G C96G | -2.17
162 | C95G C96U | -2.05
163 | C96G A97G G143U | -3.14
164 | C93U C114U G141A | ≤ -4.2
165 | C96A C125A | -0.718
166 | C96A C103G | -2.53
167 | C95A C96A | -2.33
